The results in this text go back to PMC2901993 (Biochemical and biophysical research communications, 2010).

Series [1] concerns the target translin (in translin-trax complex);trax (translin-associated factor X) (Mus musculus;Mus musculus, UniProt Q62348;Q9QZE7 1-228;1-290, |). Nature of the series: fluorescence polarization. (In general: In fluorescence polarisation assays a small probe gives low polarisation when free and higher when bound to something large.)
For a further series, the target named is translin (TB-RBP) (Mus musculus, UniProt Q62348 1-228). Put plainly: fluorescence polarization.

The Kd is the equilibrium constant for the complex coming apart. A lower Kd goes with tighter binding.

Substitutions are numbered along the chain they refer to.

Sequence of translin (TB-RBP) (Q62348 whole entry): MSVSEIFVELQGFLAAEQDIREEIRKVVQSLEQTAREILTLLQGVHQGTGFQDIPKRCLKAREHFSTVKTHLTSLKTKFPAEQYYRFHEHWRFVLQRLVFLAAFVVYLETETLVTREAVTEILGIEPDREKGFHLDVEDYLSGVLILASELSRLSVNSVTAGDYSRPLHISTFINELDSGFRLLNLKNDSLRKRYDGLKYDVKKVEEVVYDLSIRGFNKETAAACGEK
Sequence of translin (in translin-trax complex);trax (translin-associated factor X) (Q62348 whole entry, chain 1 of 2): as the sequence (Q62348 whole entry) above
Sequence of translin (in translin-trax complex);trax (translin-associated factor X) (Q9QZE7 whole entry, chain 2 of 2): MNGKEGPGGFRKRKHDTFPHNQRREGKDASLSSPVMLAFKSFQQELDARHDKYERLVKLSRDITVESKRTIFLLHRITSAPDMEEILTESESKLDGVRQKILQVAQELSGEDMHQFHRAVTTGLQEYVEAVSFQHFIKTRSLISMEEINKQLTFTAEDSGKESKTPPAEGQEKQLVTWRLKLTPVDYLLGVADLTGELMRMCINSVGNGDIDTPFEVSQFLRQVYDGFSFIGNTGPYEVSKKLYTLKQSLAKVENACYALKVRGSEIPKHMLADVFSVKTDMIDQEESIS

B1: PRM-2 (ssRNA)
RNA: UCUGAGCCCUGAGCUGCCAAGGAGCCACGAGAUCUGAGU
Regarding B1, the figures for the Kd (in series [1]; in the series with translin (TB-RBP)) were 40000 nM and 200 nM, respectively.

B2: PRM-2 Variant 1 (ssRNA)
RNA: B1 RNA with G11C, G13C
For B2, the affinity in the series with translin (TB-RBP), expressed as Kd, was 1000 nM.

B3: PRM-2 Variant 3 (ssRNA)
RNA: B1 RNA with G11C, G13C, G29C, G31C
In the series with translin (TB-RBP), B3 showed a Kd of 300 nM.

B4: PRM-2 Variant 2 (ssRNA)
RNA: B1 RNA with G29C, G31C
Regarding B4, the Kd in the series with translin (TB-RBP) was 200 nM.

B5: PRM-2(1-30) (ssRNA)
RNA: UCUGAGCCCUGAGCUGCCAAGGAGCCACGA
The molecule B5 gave a Kd with translin (TB-RBP) of 200 nM.

B6: dPRM-2 (ssDNA)
DNA: TCTGAGCCCTGAGCTGCCAAGGAGCCACGAGATCTGAGT
Take B6: the Kd in series [1] turned out to be 4000 nM; with translin (TB-RBP), 10000 nM.

B7: rGAG (ssRNA)
RNA: AGAGGAGGAGGAGGAGGAGGAGGAG
In turn, B7 showed a Kd with translin (TB-RBP) of 500 nM.
